Reference: US10172951B2, “Dendrimer based nanodevices for therapeutic and imaging purposes” (priority 2009, dated 2019)

How the values were obtained:
[1] = test system: Mouse microglial cell line (BV-2); assay: In vitro cytotoxicity, MTT assay (Example 19)
From the text: In vitro cytotoxicity of the conjugate, dendrimer and NAC, at conditions similar to that used in the efficacy assays, was investigated by MTT assay. Mouse microglial cell line (BV-2) was obtained from Children's Hospital of Michigan Cell Culture Facility. These cells were used because the eventual in vivo applications seek to target microglial cells that become activated as a result of neuroinflammation.
The lipopolysaccharide (LPS) was used to activate the cells for the ROS assay. For the cytotoxicity study, the LPS treatment was continuous for 24 hours. For both groups, the LPS concentration used was 100 ng/ml. Three concentrations of NAC were studied: 0.5 mM, 2 mM and 8 mM. For the conjugate assays, the concentrations used corresponded to equivalent NAC doses of the free drug treatment groups. Similarly, the dendrimer assays were run by using dendrimer concentrations that were equivalent to conjugate treatments. Control groups included cells receiving only LPS and no other treatment and cells with no LPS or other treatment. The proportion of viable cells in the treated group was compared to that of negative control. The cell viability is expressed as mean±SD of three samples per group, and assessed by t-test.

[2] = Cysteine triggered NAC release from PAMAM-S-S-NAC; format: physicochemical; settings: pH 7.4
Method: (§1) Appropriate amounts of PAMAM-S—S-NAC conjugate were dissolved in release media (Citrate or PBS buffers) to form a solution of 1 mg/ml PAMAM-S—S-NAC. One of the thiol containing molecules (GSH, Cys or BSA) was added to the conjugates to form 10 mM, 2 mM, 0.5 mM 0.1 mM or 2 μM overall thiol group concentrations and to initiate the release of NAC. All samples were run as triplicates for statistical analysis.

[3] = GSH triggered NAC release from PAMAM dendrimer-NAC conjugates (RP-HPLC); format: physicochemical; settings: for amount released: over 20 hours
Method: as §1
As control samples, conjugates were analyzed in both release media in the absence of reducing agents. The solutions were kept at 37° C. and stirred continuously. At predetermined time intervals, […] of samples were withdrawn and immediately analyzed with RP-HPLC and the concentrations of analytes were determined by using appropriate calibrations prepared under same conditions.
Dendrimer NAC conjugates were analyzed for their drug release mechanism and kinetics in the presence of GSH, Cys and BSA. Buffer solutions with pH 5 (Citrate Buffer) and pH 7.4 (Phosphate Buffered Saline) containing various concentrations of these thiol containing moieties were used in release studies.
All GSH concentrations studied were between average plasma (2 μM) and intracellular (2-10 mM) GSH levels. Various GSH concentrations were used in order to determine the GSH dependent release kinetics of the conjugate. The conjugate solutions contained 730 μM NAC in the conjugated form (1 mg/ml PAMAM-S—S-NAC) at the beginning of the release studies. GSH concentration in the release media was compared to the conjugated NAC concentrations in the release solutions for analysis of the release kinetics and mechanism.
The release of NAC from the conjugates was investigated in the presence of GSH at intracellular and extracellular concentrations. It was assumed that the release of NAC would occur by the disulfide exchange reaction. GSH and its oxidized form (GSSG) are responsible for forming the intracellular redox buffer. Intracellularly, GSH takes the role of attacking thiolate moiety and gets oxidized in the process while cleaving the existing disulfide bonds.
The conjugates were also analyzed in the absence of GSH to verify the stability of the disulfide linkage at physiological pH. […] The extent of the release of drug from both dendrimer-NAC conjugates was also analyzed at plasma and intracellular GSH concentrations. The conjugates and the GSH in required amounts were added to PBS solution, and the solution was analyzed at various time intervals by HPLC for up to 17 hours. UV absorbance peak areas were used to determine the concentrations of each of the species in the solution, based on appropriate calibration curves.

[4] = Stability of conjugate in bovine serum albumin (BSA) solution; format: physicochemical; settings: pH 7.4 and pH 5, over 24 hours
From the text: To investigate the reducing activity of Cys in protein structures, bovine serum albumin (BSA) was chosen for release studies since it is the most abundant protein in plasma. Additionally, for intravenous administration of conjugates, it is important for the drug to stay intact with the carrier until the conjugate reaches its final destination within the body. Thus the release characteristic in the presence of albumin is crucial for intravenous applications. The release studies in the presence of BSA were carried out at pH 7.4 and pH 5 as well. The BSA concentrations used for the studies were adjusted so that the overall Cys concentrations in BSA release media were the same as the GSH and Cys release studies, discussed earlier. In addition to the five thiol concentrations studied, the stability of the conjugate at plasma BSA concentration was also analyzed.

[5] = test system: BV-2 cells; assay: ROS assay, percent reduction in H2O2 in LPS-treated BV-2 cells (Example 19); format: cell-based, mouse; settings: for reduction in H2O2 levels: 0.5 mM NAC (equivalent), co-treatment with LPS
Method: Cells were treated with lipopolysaccharide (LPS) to induce the production of ROS. The cells were treated with LPS (100 ng/ml) and either NAC, PAMAM-S—S-NAC, or free PAMAM-NH2 dendrimers at appropriate concentrations to study the efficacy of the conjugates for reducing the ROS concentrations. In order to quantify the efficacy of conjugates, H2O2 released from BV-2 cells (ROS) was measured using the Amplex Red Hydrogen Peroxide/Peroxidase Assay Kit using previously established procedures.

[6] = Solubility in PBS/H2O; format: physicochemical
[7] = 10 mM GSH, PBS pH 7.4, within 1 hour
[8] = 10 mM GSH, after the initial 1 hour release (time not given)

PAMAM-NH—CO-Ethyl-S—S-NAC [PAMAM-S—S-NAC]
cell survival rate ([1]; highest dose): 84%
cell survival rate ([1]; lowest concentration of the conjugate): greater than 95%
rate of NAC release with Cys compared to GSH [2]: slightly faster rates
NAC payload in GS-S-NAC (NAC-GSH) form [3, 7]: 19%
NAC payload released in free form [3, 7]: 47%
total NAC release [3, 7]: 66%
NAC payload as GS-S-NAC [3, 8]: 14%
NAC payload in free form [3, 8]: 41%
NAC release ([3]; PBS buffer without GSH, 17 hours): did not release any of the NAC they carried
duration of sustained drug release ([3]; lysosomal pH): about 8 hours
NAC release ([3]; pH 5, 2 μM GSH, within 20 hours): no significant amount NAC was released
amount released ([3]; pH 5, 100 μM GSH): 15%
amount released ([3]; pH 5, 500 μM GSH): 58%
time to nearly completed release ([3]; pH 5, 2000 μM GSH): up to 20 hours
time to nearly completed release ([3]; pH 5, 10,000 μM GSH): ≤ 7 h
maximum extent of payload release ([3]; pH 5.0, intracellular GSH concentrations): about 90%
NAC payload released ([3]; pH 5, intracellular GSH concentrations (excess), within 20 hours): 95%
NAC release ([3]; pH 5, no GSH): did not release any NAC
NAC release ([3]; pH 7.4, 2 μM GSH): no detectable level of NAC released
NAC release ([3]; pH 7.4, 100 μM GSH): 6%
NAC release ([3]; pH 7.4, 500 μM GSH): 31%
payload released ([3]; pH 7.4, 2000 μM GSH): 60%
payload released ([3]; pH 7.4, 10,000 μM GSH): 66%
NAC release ([3]; pH 7.4, absence of GSH, within 3 days): did not release any NAC
maximum extent of payload release ([3]; pH 7.4, intracellular GSH concentrations): approximately 65%
drug released ([3]; pH 7.4, intracellular GSH levels, in less than two hours): More than 60%
NAC payload found as GS-S-NAC or NAC-NAC ([3]; plasma GSH concentration (2 μM)): 1%
release of free NAC ([3]; plasma GSH concentration (2 μM), 17 hours): did not release any detectable levels of free NAC
NAC release in presence of BSA [4]: no NAC being released
reduction in H2O2 levels ([5]; 24 hours): 72%
reduction in H2O2 levels ([5]; 72 hours): 101%
reduction in effective dose ([5]; 3 hours of treatment, lower drug doses (0.5 mM and 2 mM)): ≤ 4 fold
reduction of effective dose of NAC ([5]; continuous treatment, 0.5 mM conjugate vs 8 mM free NAC): about 16 times
Solubility in PBS/H2O [6]: Highly
